We go through 32 molecules from PMC10786891, “Massively parallel profiling of RNA-targeting CRISPR-Cas13d”.

Numbering of substitutions follows the chain as printed. Names and notes keep the numbering of the source.

T1: EsCas13d, nuclease-dead (Eubacterium siraeum, UniProt B0MS50, R295A;H300A;R849A;H854A)
T1 sequence: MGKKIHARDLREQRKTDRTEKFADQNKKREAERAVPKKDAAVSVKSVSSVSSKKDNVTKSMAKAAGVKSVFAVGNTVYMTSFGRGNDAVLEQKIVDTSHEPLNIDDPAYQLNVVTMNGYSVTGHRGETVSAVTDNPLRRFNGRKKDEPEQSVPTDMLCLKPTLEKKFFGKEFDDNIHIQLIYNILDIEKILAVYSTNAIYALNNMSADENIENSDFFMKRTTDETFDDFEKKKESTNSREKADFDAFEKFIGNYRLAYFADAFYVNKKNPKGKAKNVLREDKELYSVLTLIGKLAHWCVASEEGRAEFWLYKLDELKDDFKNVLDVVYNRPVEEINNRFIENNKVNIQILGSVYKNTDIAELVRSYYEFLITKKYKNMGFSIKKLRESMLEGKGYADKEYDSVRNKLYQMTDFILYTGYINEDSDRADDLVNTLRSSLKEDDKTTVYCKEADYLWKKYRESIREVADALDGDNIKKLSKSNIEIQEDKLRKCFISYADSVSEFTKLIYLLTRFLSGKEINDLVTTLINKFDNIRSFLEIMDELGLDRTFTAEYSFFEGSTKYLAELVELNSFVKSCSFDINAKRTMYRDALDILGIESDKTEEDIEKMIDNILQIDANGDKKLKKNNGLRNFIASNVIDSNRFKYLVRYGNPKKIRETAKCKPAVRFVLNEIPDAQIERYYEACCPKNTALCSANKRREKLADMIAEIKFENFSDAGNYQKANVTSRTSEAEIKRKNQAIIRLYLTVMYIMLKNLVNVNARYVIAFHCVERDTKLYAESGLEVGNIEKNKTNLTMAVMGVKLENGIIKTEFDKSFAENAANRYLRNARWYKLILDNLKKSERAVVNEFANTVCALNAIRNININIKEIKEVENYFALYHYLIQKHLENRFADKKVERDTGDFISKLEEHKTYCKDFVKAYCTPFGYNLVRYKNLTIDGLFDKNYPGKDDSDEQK

B1: target 1 del2,del8 (mixed)
RNA 1: CACCCGUGCAAAAAUGCAGGGGUCUAAAACUGAGCGGAUAACCUCUCUAUGG
RNA 2: GGGAAUGGAUCCACAUCUACGAAUUCGUACCAUAGAGAGGUUACCGCUACCGAGAUCGGAAGAGCACACGU
B2: target 1 G15U,A18U (mixed)
RNA 1: B1 RNA 1
RNA 2: GGGAAUGGAUCCACAUCUACGAAUUCGUACCAUUGAUAGGUUAUCCGCUCACCGAGAUCGGAAGAGCACACGU
B3: target 1 C7U (mixed)
RNA 1: B1 RNA 1
RNA 2: B2 RNA 2 with U34A, U37G, C45U
B4: target 1 insA 3' of 22,insC 3' of 18 (mixed)
RNA 1: B1 RNA 1
RNA 2: GGGAAUGGAUCCACAUCUACGAAUUCGUACACAUACGAGAGGUUAUCCGCUCACCGAGAUCGGAAGAGCACACGU
B5: target 1 insU 3' of 21,insA 3' of 15 (mixed)
RNA 1: B1 RNA 1
RNA 2: B4 RNA 2 with A31C, C32U, C36G, G37A, A38G, G39A
B6: target 1 insU 3' of 17,insG 3' of 4 (mixed)
RNA 1: B1 RNA 1
RNA 2: GGGAAUGGAUCCACAUCUACGAAUUCGUACCAUAGUAGAGGUUAUCCGCGUCACCGAGAUCGGAAGAGCACACGU
B7: target 1 C4G,G12A (mixed)
RNA 1: B1 RNA 1
RNA 2: B2 RNA 2 with U34A, U37G, G40A, C48G
B8: target 1 C2A,C21A (mixed)
RNA 1: B1 RNA 1
RNA 2: B2 RNA 2 with C31A, U34A, U37G, C50A
B9: target 1 insA 3' of 17,insA 3' of 8 (mixed)
RNA 1: B1 RNA 1
RNA 2: B6 RNA 2 with U36A, C46A, G48C, C49G, G50C
B10: target 1 insU 3' of 12,insA 3' of 8 (mixed)
RNA 1: B1 RNA 1
RNA 2: B6 RNA 2 with U36A, A37G, G38A, A39G, G41U, C46A, G48C, C49G, G50C
B11: target 1 insC 3' of 22,insU 3' of 15 (mixed)
RNA 1: B1 RNA 1
RNA 2: B4 RNA 2 with A31C, C36G, G37A, A38G, G39U
B12: target 1 C2U,G17U (mixed)
RNA 1: B1 RNA 1
RNA 2: B2 RNA 2 with U34A, G35U, U37G, C50U
B13: target 1 insC 3' of 11,insC 3' of 10 (mixed)
RNA 1: B1 RNA 1
RNA 2: GGGAAUGGAUCCACAUCUACGAAUUCGUACCAUAGAGAGGUCUCAUCCGCUCACCGAGAUCGGAAGAGCACACGU
B14: target 1 insA 3' of 22,insU 3' of 7 (mixed)
RNA 1: B1 RNA 1
RNA 2: GGGAAUGGAUCCACAUCUACGAAUUCGUACACAUAGAGAGGUUAUCUCGCUCACCGAGAUCGGAAGAGCACACGU
B15: target 1 insA 3' of 13,insG 3' of 8 (mixed)
RNA 1: B1 RNA 1
RNA 2: B13 RNA 2 with G40A, U41G, C42U, C44A, A45U, U46G
B16: target 1 insU 3' of 13,insU 3' of 1 (mixed)
RNA 1: B1 RNA 1
RNA 2: B6 RNA 2 with U36A, A37G, G38A, A39G, G40U, G50U, U51C, C52A, A53U
B17: target 1 insC 3' of 17,insU 3' of 6 (mixed)
RNA 1: B1 RNA 1
RNA 2: B6 RNA 2 with U36C, G48U, C49G, G50C
B18: target 1 insA 3' of 21,insA 3' of 5 (mixed)
RNA 1: B1 RNA 1
RNA 2: B14 RNA 2 with A31C, C32A, U47C, C48G, G49A
B19: target 1 G13A,C21U (mixed)
RNA 1: B1 RNA 1
RNA 2: B2 RNA 2 with C31U, U34A, U37G, G39A
B20: target 1 C4A,G12U (mixed)
RNA 1: B1 RNA 1
RNA 2: B2 RNA 2 with U34A, U37G, G40U, C48A
B21: target 1 insU 3' of 9,insG 3' of 7 (mixed)
RNA 1: B1 RNA 1
RNA 2: B13 RNA 2 with C42U, U43A, C44U, A45U, U46C, C47G
B22: target 1 G13A,A14G (mixed)
RNA 1: B1 RNA 1
RNA 2: B2 RNA 2 with U34A, U37G, A38G, G39A
B23: target 1 del1,del8 (mixed)
RNA 1: B1 RNA 1
RNA 2: B1 RNA 2 with A49C
B24: target 1 G13C,C21U (mixed)
RNA 1: B1 RNA 1
RNA 2: B2 RNA 2 with C31U, U34A, U37G, G39C
B25: target 1 insU 3' of 21,insU 3' of 4 (mixed)
RNA 1: B1 RNA 1
RNA 2: B14 RNA 2 with A31C, C32U, U47C, C48G, G49C, C50U
B26: target 1 insG 3' of 21,insA 3' of 10 (mixed)
RNA 1: B1 RNA 1
RNA 2: B14 RNA 2 with A31C, C32G, U45A, C46U, U47C
B27: target 1 C2U,C6A (mixed)
RNA 1: B1 RNA 1
RNA 2: B2 RNA 2 with U34A, U37G, C46A, C50U
B28: target 1 insC 3' of 18,insA 3' of 2 (mixed)
RNA 1: B1 RNA 1
RNA 2: B6 RNA 2 with G35C, U36G, G50U, U51C, C52A
B29: target 1 insC 3' of 17,insC 3' of 11 (mixed)
RNA 1: B1 RNA 1
RNA 2: B13 RNA 2 with A36C, G37A, A38G, G39A, U41G, C42U, U43C, C44U
B30: target 1 insA 3' of 19,insA 3' of 17 (mixed)
RNA 1: B1 RNA 1
RNA 2: B4 RNA 2 with A31C, C32A, A33U, U34A, C36G, G37A
B31: target 1 insG 3' of 16,insC 3' of 12 (mixed)
RNA 1: B1 RNA 1
RNA 2: B13 RNA 2 with A38G, G39A, U41G, C44U
B32: target 1 G15C,G17A (mixed)
RNA 1: B1 RNA 1
RNA 2: B2 RNA 2 with U34A, G35A, U37C

The data set addresses T1, EsCas13d, nuclease-dead. The experiment in a line: crRNA (strand 1, pre-loaded); Mg2+; 40 mM Tris-HCl pH 7.5, 150 mM NaCl, 6 mM MgCl2, 1 mM DTT, 0.1% Tween-20, 0.2 mg/ml BSA; 25 C; 10 min per concentration, then washed. The conditions noted are these: tags: His6-TwinStrep-SUMO cleaved; N-terminal SNAP kept (SNAP-Surface 488); label: 3' end held by stalled T7 RNA polymerase.
By Kd is commonly meant the equilibrium constant for the complex coming apart. Turning to B1, the Kd is 10 ± 0.5 nM.

B2: the Kd was found to be 70 ± 13 nM.

As to B3, the affinity, expressed as Kd, was 7.5 ± 0.4 nM.

For B4, binding was characterised by a dissociation constant (Kd) of 47 ± 8 nM.

Consider B5, for which the Kd turned out to be 18.5 ± 1.7 nM.

As for B6, the Kd turned out to be 14.5 ± 1.3 nM.

As for B7, the dissociation constant (Kd) is 3.39 ± 0.29 nM.

B8: the Kd worked out at 38 ± 6 nM.

B9 yielded a Kd of 16.1 ± 1.2 nM.

The molecule B10 showed a Kd of 12.3 ± 0.7 nM.

As to B11, the affinity, expressed as Kd, was 29 ± 10 nM.

Molecule B12 gave a Kd of 20.5 ± 2.4 nM.

Turning to B13, the Kd was found to be 29 ± 4 nM.

Molecule B14 had a Kd of 15.3 ± 0.7 nM.

Take B15: the Kd is 5.4 ± 0.5 nM.

The molecule B16 gave a Kd of 14.8 ± 1.7 nM.

For the molecule B17, the Kd amounted to 64 ± 8 nM.

The molecule B18 gave a Kd of 14.3 ± 0.9 nM.

As for B19, binding was characterised by a dissociation constant (Kd) of 7.8 ± 0.7 nM.

Molecule B20 showed a Kd of 8.5 ± 1.3 nM.

In turn, B21 returned a Kd of 10.6 ± 0.5 nM.

The molecule B22 registered a Kd of 17.2 ± 1.6 nM.

Molecule B23 yielded a Kd of 17.3 ± 1.7 nM.

B24 displayed a Kd of 5.6 ± 0.7 nM.

As to B25, binding was put at a Kd of 21.8 ± 1 nM.

In turn, B26 gave a Kd of 84 ± 24 nM.

As to B27, binding was characterised by a dissociation constant (Kd) of 6 ± 0.4 nM.

Regarding B28, the Kd turned out to be 28.1 ± 2.6 nM.

Consider B29, for which binding was put at a Kd of 80 ± 26 nM.

The molecule B30 gave a Kd of 37 ± 5 nM.

Take B31: the Kd is 47 ± 13 nM.

On to B32, for which binding was characterised by a dissociation constant (Kd) of 90 ± 40 nM.
